# Laboratory results published in the RNAGym collection of RNA variant scans (doi:10.1021/acssynbio.7b00057).
# B1: Pistol ribozyme (parent)
# chain: GGGUCGUUGUUCCAUAAUCGCGUGGAUAUGGCACGCAAGUUUCUACCGGGCACCGUAAAUGUCCGACUGGAGCCGUUCGGGCGGCUAUAAACAGACCUCAGGCCCGAAGCGUGGCGGCACCUGCCGCCGGUGGUAAAAAAGAUCGGAAGAGCACACGUCU
# Variants of: B1
# Experiment: aptazyme ON/OFF ratio, guanine; higher = stronger switching; co-transcriptional cleavage with and without guanine
row,Variant,aptazyme ON/OFF ratio
1,GGGUCGCAAUCAGAUAAUCGCGUGGAUAUGGCACGCAAGUUUCUACCGGGCACCGUAAAUGUCCGACUGGAGCCGUUCGGGCGGCUAUAAACAGACCUCAGGCCCGAAGCGUGGCGGCACCUGCCGCCGGUGGUAAAAAAGAUCGGAAGAGCACACGUCU [U7C U8A G9A U11C C12A C13G],1.15
2,GGGUCGCAAUCAUAUAAUCGCGUGGAUAUGGCACGCAAGUUUCUACCGGGCACCGUAAAUGUCCGACUGGAGCCGUUCGGGCGGCUAUAAACAGACCUCAGGCCCGAAGCGUGGCGGCACCUGCCGCCGGUGGUAAAAAAGAUCGGAAGAGCACACGUCU [U7C U8A G9A U11C C12A C13U],1.28
3,GGGUCGCAAUCAAAUAAUCGCGUGGAUAUGGCACGCAAGUUUCUACCGGGCACCGUAAAUGUCCGACUGGAGCCGUUCGGGCGGCUAUAAACAGACCUCAGGCCCGAAGCGUGGCGGCACCUGCCGCCGGUGGUAAAAAAGAUCGGAAGAGCACACGUCU [U7C U8A G9A U11C C12A C13A],1.15
4,GGGUCGCAAUCUGAUAAUCGCGUGGAUAUGGCACGCAAGUUUCUACCGGGCACCGUAAAUGUCCGACUGGAGCCGUUCGGGCGGCUAUAAACAGACCUCAGGCCCGAAGCGUGGCGGCACCUGCCGCCGGUGGUAAAAAAGAUCGGAAGAGCACACGUCU [U7C U8A G9A U11C C12U C13G],1.09
5,GGGUCGCAAUCUAAUAAUCGCGUGGAUAUGGCACGCAAGUUUCUACCGGGCACCGUAAAUGUCCGACUGGAGCCGUUCGGGCGGCUAUAAACAGACCUCAGGCCCGAAGCGUGGCGGCACCUGCCGCCGGUGGUAAAAAAGAUCGGAAGAGCACACGUCU [U7C U8A G9A U11C C12U C13A],1.17
6,GGGUCGCAAUCUUAUAAUCGCGUGGAUAUGGCACGCAAGUUUCUACCGGGCACCGUAAAUGUCCGACUGGAGCCGUUCGGGCGGCUAUAAACAGACCUCAGGCCCGAAGCGUGGCGGCACCUGCCGCCGGUGGUAAAAAAGAUCGGAAGAGCACACGUCU [U7C U8A G9A U11C C12U C13U],1.2
7,GGGUCGCAAUCGCAUAAUCGCGUGGAUAUGGCACGCAAGUUUCUACCGGGCACCGUAAAUGUCCGACUGGAGCCGUUCGGGCGGCUAUAAACAGACCUCAGGCCCGAAGCGUGGCGGCACCUGCCGCCGGUGGUAAAAAAGAUCGGAAGAGCACACGUCU [U7C U8A G9A U11C C12G],1.16
8,GGGUCGCAAUCUCAUAAUCGCGUGGAUAUGGCACGCAAGUUUCUACCGGGCACCGUAAAUGUCCGACUGGAGCCGUUCGGGCGGCUAUAAACAGACCUCAGGCCCGAAGCGUGGCGGCACCUGCCGCCGGUGGUAAAAAAGAUCGGAAGAGCACACGUCU [U7C U8A G9A U11C C12U],1.13
9,GGGUCGCAAUCACAUAAUCGCGUGGAUAUGGCACGCAAGUUUCUACCGGGCACCGUAAAUGUCCGACUGGAGCCGUUCGGGCGGCUAUAAACAGACCUCAGGCCCGAAGCGUGGCGGCACCUGCCGCCGGUGGUAAAAAAGAUCGGAAGAGCACACGUCU [U7C U8A G9A U11C C12A],1.23
10,GGGUCGCAAUCGGAUAAUCGCGUGGAUAUGGCACGCAAGUUUCUACCGGGCACCGUAAAUGUCCGACUGGAGCCGUUCGGGCGGCUAUAAACAGACCUCAGGCCCGAAGCGUGGCGGCACCUGCCGCCGGUGGUAAAAAAGAUCGGAAGAGCACACGUCU [U7C U8A G9A U11C C12G C13G],1.12
11,GGGUCGCAAUCGAAUAAUCGCGUGGAUAUGGCACGCAAGUUUCUACCGGGCACCGUAAAUGUCCGACUGGAGCCGUUCGGGCGGCUAUAAACAGACCUCAGGCCCGAAGCGUGGCGGCACCUGCCGCCGGUGGUAAAAAAGAUCGGAAGAGCACACGUCU [U7C U8A G9A U11C C12G C13A],1.16
12,GGGUCGCAAUCGUAUAAUCGCGUGGAUAUGGCACGCAAGUUUCUACCGGGCACCGUAAAUGUCCGACUGGAGCCGUUCGGGCGGCUAUAAACAGACCUCAGGCCCGAAGCGUGGCGGCACCUGCCGCCGGUGGUAAAAAAGAUCGGAAGAGCACACGUCU [U7C U8A G9A U11C C12G C13U],1.18
13,GGGUCGCACUUAUAUAAUCGCGUGGAUAUGGCACGCAAGUUUCUACCGGGCACCGUAAAUGUCCGACUGGAGCCGUUCGGGCGGCUAUAAACAGACCUCAGGCCCGAAGCGUGGCGGCACCUGCCGCCGGUGGUAAAAAAGAUCGGAAGAGCACACGUCU [U7C U8A G9C C12A C13U],1.15
14,GGGUCGCACUUAAAUAAUCGCGUGGAUAUGGCACGCAAGUUUCUACCGGGCACCGUAAAUGUCCGACUGGAGCCGUUCGGGCGGCUAUAAACAGACCUCAGGCCCGAAGCGUGGCGGCACCUGCCGCCGGUGGUAAAAAAGAUCGGAAGAGCACACGUCU [U7C U8A G9C C12A C13A],1.15
15,GGGUCGCACUUAGAUAAUCGCGUGGAUAUGGCACGCAAGUUUCUACCGGGCACCGUAAAUGUCCGACUGGAGCCGUUCGGGCGGCUAUAAACAGACCUCAGGCCCGAAGCGUGGCGGCACCUGCCGCCGGUGGUAAAAAAGAUCGGAAGAGCACACGUCU [U7C U8A G9C C12A C13G],1.05
16,GGGUCGCACUUCCAUAAUCGCGUGGAUAUGGCACGCAAGUUUCUACCGGGCACCGUAAAUGUCCGACUGGAGCCGUUCGGGCGGCUAUAAACAGACCUCAGGCCCGAAGCGUGGCGGCACCUGCCGCCGGUGGUAAAAAAGAUCGGAAGAGCACACGUCU [U7C U8A G9C],1.04
17,GGGUCGCACUUACAUAAUCGCGUGGAUAUGGCACGCAAGUUUCUACCGGGCACCGUAAAUGUCCGACUGGAGCCGUUCGGGCGGCUAUAAACAGACCUCAGGCCCGAAGCGUGGCGGCACCUGCCGCCGGUGGUAAAAAAGAUCGGAAGAGCACACGUCU [U7C U8A G9C C12A],1.17
18,GGGUCGCAAUGACAUAAUCGCGUGGAUAUGGCACGCAAGUUUCUACCGGGCACCGUAAAUGUCCGACUGGAGCCGUUCGGGCGGCUAUAAACAGACCUCAGGCCCGAAGCGUGGCGGCACCUGCCGCCGGUGGUAAAAAAGAUCGGAAGAGCACACGUCU [U7C U8A G9A U11G C12A],1.07
